# Like-named read-outs stand apart in the source and are kept apart here.
# T1: Nab3-RRM(419) (Saccharomyces cerevisiae, UniProt P38996 329-419)
# T1 sequence: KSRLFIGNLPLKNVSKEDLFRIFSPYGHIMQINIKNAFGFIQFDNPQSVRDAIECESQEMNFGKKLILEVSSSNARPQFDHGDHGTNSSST
# B1: FAM-snR47one (ssRNA)
# RNA: UUCUUAUUUUUA
# B2: FAM-wtsnR47 (ssRNA)
# RNA: UUCUUAUUCUUA
# Columns and labels:
# Nab3-RRM(419) [1] = target: T1, Nab3-RRM(419); assay: fluorescence anisotropy
# Nab3-RRM(419) [2] = target: T1, Nab3-RRM(419); assay: fluorescence anisotropy; remark: listed apart in the source
Binder,binding result (Nab3-RRM(419) [1]),binding result (Nab3-RRM(419) [2])
B1,binds,
B2,,binds

# Source: publication PMC3017603
